Test results reported in IntAct's records for PubMed 22745600.

B1: Homeobox protein extradenticle (Drosophila melanogaster (Fruit fly)), P40427 (parent)
chain: MEDPNRMLAHTGGMMAPQGYGLSGQDDGQNAGSENEVRKQKDIGEILQQIMSISEQSLDEAQARKHTLNCHRMKPALFSVLCEIKEKTVLSIRNTQEEEPPDPQLMRLDNMLIAEGVAGPEKGGGGAAAASAAAASQGGSLSIDGADNAIEHSDYRAKLAQIRQIYHQELEKYEQACNEFTTHVMNLLREQSRTRPITPKEIERMVQIIHKKFSSIQMQLKQSTCEAVMILRSRFLDARRKRRNFSKQASEILNEYFYSHLSNPYPSEEAKEELARKCGITVSQVSNWFGNKRIRYKKNIGKAQEEANLYAAKKAAGASPYSMAGPPSGTTTPMMSPAPPQDSMGYPMGSGGYDQQQPYDNSMGGYDPNLHQDLSP
B2: Pre-B-cell leukemia transcription factor 1 (Mus musculus), P41778 (parent)
chain: MDEQPRLMHSHAGVGMAGHPGLSQHLQDGAGGTEGEGGRKQDIGDILQQIMTITDQSLDEAQARKHALNCHRMKPALFNVLCEIKEKTVLSIRGAQEEEPTDPQLMRLDNMLLAEGVAGPEKGGGSAAAAAAAAASGGAGSDNSVEHSDYRAKLSQIRQIYHTELEKYEQACNEFTTHVMNLLREQSRTRPISPKEIERMVSIIHRKFSSIQMQLKQSTCEAVMILRSRFLDARRKRRNFNKQATEILNEYFYSHLSNPYPSEEAKEELAKKCGITVSQVSNWFGNKRIRYKKNIGKFQEEANIYAAKTAVTATNVSAHGSQANSPSTPNSAGSSSSFNMSNSGDLFMSVQSLNGDSYQGAQVGANVQSQVDTLRHVISQTGGYSDGLAASQMYSPQGISANGGWQDATTPSSVTSPTEGPGSVHSDTSN

How the values were obtained:
lab_drome lab, P10105 = variants of: B1; settings: with lab_drome lab
Chain of lab_drome lab, P10105 (P10105 whole entry): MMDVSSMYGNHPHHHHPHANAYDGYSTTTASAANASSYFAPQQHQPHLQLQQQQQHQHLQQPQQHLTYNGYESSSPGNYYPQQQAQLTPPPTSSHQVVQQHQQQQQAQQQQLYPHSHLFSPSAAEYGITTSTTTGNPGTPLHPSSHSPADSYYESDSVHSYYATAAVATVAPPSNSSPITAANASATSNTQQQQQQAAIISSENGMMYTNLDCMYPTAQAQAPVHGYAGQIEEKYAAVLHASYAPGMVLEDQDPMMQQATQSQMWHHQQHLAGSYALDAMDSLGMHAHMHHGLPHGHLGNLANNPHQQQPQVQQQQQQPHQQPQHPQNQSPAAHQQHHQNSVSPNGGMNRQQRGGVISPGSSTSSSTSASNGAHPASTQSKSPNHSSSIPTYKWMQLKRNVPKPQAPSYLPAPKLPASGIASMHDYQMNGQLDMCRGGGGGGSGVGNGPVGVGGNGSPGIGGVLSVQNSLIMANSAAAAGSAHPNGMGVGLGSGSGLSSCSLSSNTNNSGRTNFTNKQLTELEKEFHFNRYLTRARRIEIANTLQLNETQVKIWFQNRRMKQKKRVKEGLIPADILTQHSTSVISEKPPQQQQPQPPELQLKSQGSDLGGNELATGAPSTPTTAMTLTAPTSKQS

abdb_drome Abd-B, P09087 = variants of: B1; settings: with abdb_drome Abd-B
ubx_drome Ubx, P83949 = variants of: B1; settings: with ubx_drome Ubx
Chain of ubx_drome Ubx, P83949 (P83949 whole entry): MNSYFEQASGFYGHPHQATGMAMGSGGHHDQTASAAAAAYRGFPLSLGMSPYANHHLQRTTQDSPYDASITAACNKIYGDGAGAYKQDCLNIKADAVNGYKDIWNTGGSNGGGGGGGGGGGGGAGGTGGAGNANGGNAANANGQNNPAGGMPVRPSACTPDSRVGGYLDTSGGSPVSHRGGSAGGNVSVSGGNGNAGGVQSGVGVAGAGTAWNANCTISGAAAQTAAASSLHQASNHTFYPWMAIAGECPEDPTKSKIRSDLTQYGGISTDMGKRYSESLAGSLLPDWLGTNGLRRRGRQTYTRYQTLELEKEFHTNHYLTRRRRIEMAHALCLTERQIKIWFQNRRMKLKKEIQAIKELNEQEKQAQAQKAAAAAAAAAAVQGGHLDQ

abda_drome abd-A, P29555 = variants of: B1; settings: with abda_drome abd-A
Chain of abda_drome abd-A, P29555 (P29555 whole entry): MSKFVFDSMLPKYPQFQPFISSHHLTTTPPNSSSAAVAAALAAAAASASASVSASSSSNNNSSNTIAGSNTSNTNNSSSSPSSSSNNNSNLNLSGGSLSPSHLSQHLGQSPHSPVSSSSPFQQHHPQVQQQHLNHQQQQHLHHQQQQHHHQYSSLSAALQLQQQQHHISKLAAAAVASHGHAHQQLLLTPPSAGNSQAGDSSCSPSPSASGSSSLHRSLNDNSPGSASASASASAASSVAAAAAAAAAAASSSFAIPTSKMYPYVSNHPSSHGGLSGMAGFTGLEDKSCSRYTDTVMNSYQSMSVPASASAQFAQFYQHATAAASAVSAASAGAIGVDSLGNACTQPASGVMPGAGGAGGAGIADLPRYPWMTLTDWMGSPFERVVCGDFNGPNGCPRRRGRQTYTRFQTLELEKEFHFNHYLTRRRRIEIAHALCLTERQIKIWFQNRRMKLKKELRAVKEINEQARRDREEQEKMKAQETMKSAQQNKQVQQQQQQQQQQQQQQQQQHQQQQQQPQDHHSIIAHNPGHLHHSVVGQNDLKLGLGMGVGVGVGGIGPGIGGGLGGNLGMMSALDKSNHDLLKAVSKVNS

hxb8_mouse Hoxb8, P09632 = variants of: B2; settings: with hxb8_mouse Hoxb8, P09632
Chain of hxb8_mouse Hoxb8, P09632 (P09632 whole entry): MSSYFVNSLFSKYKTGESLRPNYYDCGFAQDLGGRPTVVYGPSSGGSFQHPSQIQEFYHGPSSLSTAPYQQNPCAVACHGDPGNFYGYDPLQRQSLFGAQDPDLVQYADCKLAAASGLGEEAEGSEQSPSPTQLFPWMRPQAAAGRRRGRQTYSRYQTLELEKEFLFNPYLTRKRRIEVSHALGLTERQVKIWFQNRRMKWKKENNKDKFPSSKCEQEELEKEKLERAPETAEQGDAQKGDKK

## N287A
lab_drome lab, P10105
  effect of a mutation on the interaction: decreasing interaction strength
abdb_drome Abd-B, P09087
  effect of a mutation on the interaction: disrupting interaction strength
ubx_drome Ubx, P83949
  effect of a mutation on the interaction: decreasing interaction strength
abda_drome abd-A, P29555
  effect of a mutation on the interaction: decreasing interaction strength

## N282A
hxb8_mouse Hoxb8, P09632
  effect of a mutation on the interaction: disrupting interaction strength
